Data on one molecule can be found in patent US20240400640A1 (published 2024).

The target in the test is IL-21-Fc. Nature of the test: SPR. On the technique in general: SPR reads the build-up and loss of mass on a sensor chip optically.

B1: hIL-21 receptor (receptor)
chain: not shown
Take B1: binding was characterised by a dissociation constant (Kd) of 1.68 pM.
